# Data reported in patent publication US20240301052A1 (LANOVA MEDICINES DEVELOPMENT, published 2024).
# “And” between values parts separate entries of the source, which are not always exact repeats. Equal values may be shown once. Read-outs that look alike come from different tables or passages of the source.
# T1: human SLC34A2 (human, UniProt O95436 1-690)
# T1 sequence (looked up): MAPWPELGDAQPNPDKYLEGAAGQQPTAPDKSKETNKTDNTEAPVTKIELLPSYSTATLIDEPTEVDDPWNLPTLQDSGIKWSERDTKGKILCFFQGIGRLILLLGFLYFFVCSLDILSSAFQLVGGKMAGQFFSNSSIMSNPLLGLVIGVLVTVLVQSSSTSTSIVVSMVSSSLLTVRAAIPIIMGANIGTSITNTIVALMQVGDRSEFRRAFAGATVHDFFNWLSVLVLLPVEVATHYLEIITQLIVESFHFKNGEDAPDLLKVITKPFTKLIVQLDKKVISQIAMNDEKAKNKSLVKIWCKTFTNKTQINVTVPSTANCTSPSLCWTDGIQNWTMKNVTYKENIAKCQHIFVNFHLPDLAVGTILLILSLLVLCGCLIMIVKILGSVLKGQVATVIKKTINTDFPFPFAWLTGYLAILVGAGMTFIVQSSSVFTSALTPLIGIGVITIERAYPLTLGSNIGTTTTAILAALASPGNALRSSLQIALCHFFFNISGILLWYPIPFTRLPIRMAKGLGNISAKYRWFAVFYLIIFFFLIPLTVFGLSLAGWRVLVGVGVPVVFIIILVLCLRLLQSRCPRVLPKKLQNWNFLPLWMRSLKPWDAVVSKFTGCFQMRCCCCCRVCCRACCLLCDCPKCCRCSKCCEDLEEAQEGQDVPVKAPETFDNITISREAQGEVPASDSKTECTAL
# T2: Rhesus SLC34A2 (Rhesus, UniProt F7HDA3 1-690)
# T2 construct: whole, on cells
# T2 sequence: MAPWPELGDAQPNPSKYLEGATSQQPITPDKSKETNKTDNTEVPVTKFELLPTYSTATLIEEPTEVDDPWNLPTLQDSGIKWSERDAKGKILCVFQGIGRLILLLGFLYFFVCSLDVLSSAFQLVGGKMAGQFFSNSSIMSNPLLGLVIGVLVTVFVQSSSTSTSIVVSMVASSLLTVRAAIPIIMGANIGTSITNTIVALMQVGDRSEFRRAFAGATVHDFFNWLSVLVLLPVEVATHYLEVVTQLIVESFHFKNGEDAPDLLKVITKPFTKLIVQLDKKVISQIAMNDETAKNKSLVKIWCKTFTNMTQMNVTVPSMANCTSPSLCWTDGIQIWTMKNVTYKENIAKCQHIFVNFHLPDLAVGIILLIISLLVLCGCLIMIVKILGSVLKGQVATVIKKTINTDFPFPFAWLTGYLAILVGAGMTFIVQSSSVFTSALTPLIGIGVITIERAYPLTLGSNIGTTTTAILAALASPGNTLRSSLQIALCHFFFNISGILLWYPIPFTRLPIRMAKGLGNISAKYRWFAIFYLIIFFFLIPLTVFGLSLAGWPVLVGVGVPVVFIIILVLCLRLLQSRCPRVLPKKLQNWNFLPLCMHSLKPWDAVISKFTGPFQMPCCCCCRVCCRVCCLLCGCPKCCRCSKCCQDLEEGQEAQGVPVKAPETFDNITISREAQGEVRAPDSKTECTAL
# T3: mouse SLC34A2 (mouse, UniProt Q9DBP0 1-697)
# T3 construct: whole, on cells
# T3 sequence (looked up): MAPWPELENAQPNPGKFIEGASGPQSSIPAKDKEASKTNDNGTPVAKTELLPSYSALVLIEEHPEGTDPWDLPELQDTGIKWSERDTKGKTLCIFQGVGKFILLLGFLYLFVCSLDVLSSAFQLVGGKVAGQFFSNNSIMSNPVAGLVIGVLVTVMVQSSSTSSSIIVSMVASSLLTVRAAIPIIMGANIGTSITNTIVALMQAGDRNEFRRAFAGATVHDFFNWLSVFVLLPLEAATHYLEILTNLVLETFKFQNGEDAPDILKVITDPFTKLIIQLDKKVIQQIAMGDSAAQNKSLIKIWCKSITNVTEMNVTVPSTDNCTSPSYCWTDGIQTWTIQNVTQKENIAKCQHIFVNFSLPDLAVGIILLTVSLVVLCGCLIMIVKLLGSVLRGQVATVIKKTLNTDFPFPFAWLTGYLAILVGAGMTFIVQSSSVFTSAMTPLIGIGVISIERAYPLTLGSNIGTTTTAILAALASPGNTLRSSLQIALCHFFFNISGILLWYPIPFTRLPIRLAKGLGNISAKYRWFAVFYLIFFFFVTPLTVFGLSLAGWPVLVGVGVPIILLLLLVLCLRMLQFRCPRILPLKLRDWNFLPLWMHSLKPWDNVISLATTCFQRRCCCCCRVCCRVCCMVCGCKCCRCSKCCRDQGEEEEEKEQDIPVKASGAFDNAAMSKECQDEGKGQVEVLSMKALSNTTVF
# Tests used:
# human SLC34A2 [1] = molecular target: T1, human SLC34A2; assay: FACS, OVCAR3 cells
# human SLC34A2 [2] = molecular target: T1, human SLC34A2; assay: FACS, RMG-1 cells
# human SLC34A2 [3] = molecular target: T1, human SLC34A2; assay: FACS, RMG-1 cells; remark: listed apart in the source
# human SLC34A2 [4] = molecular target: T1, human SLC34A2; assay: FACS, HEK293/human SLC34A2 cells
# [5] = molecular target: Cynomolgus SLC34A2 (Cynomolgus); assay: FACS, cells expressing Cynomolgus SLC34A2
# Rhesus SLC34A2 [6] = molecular target: T2, Rhesus SLC34A2; assay: FACS, HEK293/Rhesus SLC34A2 cells
# mouse SLC34A2 = molecular target: T3, mouse SLC34A2; assay: FACS, HEK293/Mouse SLC34A2 cells
# human SLC34A2 [7] = molecular target: T1, human SLC34A2; assay: FACS, OVCAR3 cells; remark: listed apart in the source
# human SLC34A2 [8] = molecular target: T1, human SLC34A2; assay: FACS, OVCAR3 cells; remark: listed apart in the source
# human SLC34A2 [9] = molecular target: T1, human SLC34A2; assay: cell-based or functional assay
# Rhesus SLC34A2 [10] = molecular target: T2, Rhesus SLC34A2; assay: FACS, HEK293/Rhesus SLC34A2 cells; remark: listed apart in the source
# human SLC34A2 [11] = molecular target: T1, human SLC34A2; assay: FACS, OVCAR3 cells
# human SLC34A2 [12] = molecular target: T1, human SLC34A2; assay: FACS, OVCAR3 cells; remark: listed apart in the source
binder,measurement,setting,value
"XMT-1536 (antibody, INN chains, looked up, V domains shown, rilsodotin auristatin payload) VH: QVQLVQSGAEVVKPGASVKMSCKASGYTFTGYNIHWVKQAPGQGLEWIGAIYPGNGDTSYKQKFRGRATLTADTSTSTVYMELSSLRSEDSAVYYCARGETARATFAYWGQGTLVTVSS VL: DIQMTQSPSSLSASVGDRVTITCSASQDIGNFLNWYQQKPGKTVKVLIYYTSSLYSGVPSRFSGSGSGTDYTLTISSLQPEDFATYYCQQYSKLPLTFGQGTKLELK",EC50,human SLC34A2 [1],6.82 nM
same,EC50,human SLC34A2 [2],7.17 nM
same,Top,human SLC34A2 [2],9940 MFI
same,EC50,human SLC34A2 [3],7.2 nM
same,EC50,human SLC34A2 [4],2.68 nM
same,Top,human SLC34A2 [4],32400 MFI
same,EC50,[5],29.3 nM
same,Top (MFI),[5],2050 MFI
same,EC50,Rhesus SLC34A2 [6],2.54 nM
same,Top (MFI),Rhesus SLC34A2 [6],11900 MFI
same,EC50,mouse SLC34A2,6.13 nM
same,EC50,human SLC34A2 [7],6.8 nM
same,EC50,human SLC34A2 [8],4.31 nM and 3.99 nM
same,Top (MFI),human SLC34A2 [8],40200 MFI and 26700 MFI
same,ADCC reporter EC50,human SLC34A2 [9],0.76 nM
same,ADCC reporter Top (MFI),human SLC34A2 [9],127000 MFI
same,ADCC-HEK293,human SLC34A2 [9],0.76 nM
same,ADCC-OVCAR3,human SLC34A2 [9],0.25 nM
same,Cytotoxic Effect - MDAH-2774,human SLC34A2 [9],0.28 nM
same,Cytotoxic Effect - OVCAR3,human SLC34A2 [9],0.029 nM
same,cytotoxicity EC50,human SLC34A2 [9],0.72 nM
same,cytotoxicity Inhibition %,human SLC34A2 [9],100%
"xi63A11D5B4 hIgG1 (antibody, V domains shown, chimeric, hIgG1) VH: QVQLQQPGAELVKPGASVKMSCRTSGYTFITYNMHWVKQTPGQGREWIGAIYPGNGDTSYNQKFKGKATLTADKSSSTAYMQLNSLTSEDSAVYYCSISTIITTGAVDYWGQGTSVTVAS VL: DIVMTQSHKFMSTSVGDRVSITCKASQDVGTAVAWYQQKAGQSPKLLIYWTSTRHTGVPDRFTGSGSGTDFTLIIRSLQSEDLADYFCQQYSRIPLTFGSGTKLEIK",EC50,Rhesus SLC34A2 [10],4.6 nM
same,Top (MFI),Rhesus SLC34A2 [10],45500 MFI
same,EC50,human SLC34A2 [11],10.5 nM
same,Top (MFI),human SLC34A2 [11],32100 MFI
"xi91C9F1 hIgG1 (antibody, V domains shown, chimeric, hIgG1) VH: EVQLQQSGPELVKPGTSVKISCKTSGFFFTEYIIHWVKQSHGRSLEWIGGIIPNNGVTNYKQNFRGKAALTADKSSNTAYMELRSLTSEDSAVYYCARWRNGYYSAMDSWGQGTSVTVSS VL: DIVVTQSHKFMSTSLGDRVSITCTASQDVGTAVAWYQQKPGHSPKLLIYWASTRHTGVPERFTGSGSGTDFTLTITNVQSEDLADYFCQQYRTSPLTFGVGTKLELK",EC50,human SLC34A2 [12],1.77 nM
same,Top (MFI),human SLC34A2 [12],32100 MFI
same,EC50,Rhesus SLC34A2 [10],3.9 nM
same,Top (MFI),Rhesus SLC34A2 [10],15500 MFI
"xi62G10E4G8 hIgG1 (antibody, V domains shown, chimeric, hIgG1) VH: QVQLQQSGAEVVKPGASVKMSCKASGYTFPSYITHWVKQTPGQGLEWIGAIYPGNGDTSYIQKFKGKATLTADKSSSTAYMQLSSLTSEDSAVYYCARGTYGTSAWFTYWGQGTLVTVSA VL: DIVLTQSPATLSVTPGDSVSLSCRARQNIGNNLYWYQQKSHESPRLLIKYASQSISGIPSRFSGSGSGTDFTLTINSVETEDFGVYFCQQSFSWPLTFGAGTKLELK",EC50,Rhesus SLC34A2 [10],3.7 nM
same,Top (MFI),Rhesus SLC34A2 [10],39100 MFI
"xi30H9B8F9 hIgG1 (antibody, V domains shown, chimeric, hIgG1) VH: QVQLQQPGAELVKPGASVKMSCKTSGYTFTTNNMHWVKQTPGQGLEWIGAIYPGNGATAYNQKFKGKATLTADKSSSTAYMQLSSLTSEASAVYYCARGMYGHGAMDYWGQGTSVIVSS VL: DIVMTQSHKFMSRSVGDRVRITCKASQDVGTAVAWYQQKPGQSPKLLIYWATTRHSGVPDRFTGSGSGTDFIFTISNVQSEDLADYFCQQYSSNPLTFGAGTKLELK",EC50,Rhesus SLC34A2 [10],1.9 nM
same,Top (MFI),Rhesus SLC34A2 [10],47900 MFI
"63A11D5B4.p1.z9 hIgG1 (antibody, V domains shown, humanized hIgG1) VH: QVQLVQSGAEVVKPGASVKMSCKTSGYTFITYNMHWVRQAPGQGLEWIGAIYPGSGDTSYNQKFKGRVTLTADKSTSTAYMELSSLRSEDTAVYYCSISTIITTGAVDYWGQGTLVTVSS VL: DIQMTQSPSSLSASVGDRVTITCKASQDVGTAVAWYQQKPGKVPKLLIYWTSTRHTGVPSRFSGSGSGTDFTLTISSLQPEDVATYYCQQYSRIPLTFGGGTKVEIK",EC50,human SLC34A2 [11],9.12 nM
same,Top (MFI),human SLC34A2 [11],26500 MFI
"91C9F1.p1.z7 hIgG1 (antibody, V domains shown, humanized hIgG1) VH: QVQLVQSGAEVKKPGSSVKVSCKTSGFFFTEYIIHWVRQAPGQGLEWIGGIIPNNDVTNYKQNFRGRVTLTADKSTSTAYMELSSLRSEDTAVYYCARWRNAYYSAMDSWGQGTTVTVSS VL: DIQVTQSPSSLSTSVGDRVTITCTASQDVGTAVAWYQQKPGKSPKLLIYWASTRHTGVPERFTGSGSGTDFTLTISSVQPEDVATYFCQQYRTSPLTFGVGTKVEIK",EC50,human SLC34A2 [12],1.67 nM
same,Top (MFI),human SLC34A2 [12],37400 MFI
